According to EP1391213A1:

Molecular target: human CD44v6 (CD44 splice variant containing the domain v6) on antigen-positive FaDu cells (human) (UniProt P16070)
Assay: flow cytometry (FACS) on FaDu cells, FITC-labeled anti-human IgG detection, on ice

Chain of UniProt P16070 (P16070 21-742, change not shown): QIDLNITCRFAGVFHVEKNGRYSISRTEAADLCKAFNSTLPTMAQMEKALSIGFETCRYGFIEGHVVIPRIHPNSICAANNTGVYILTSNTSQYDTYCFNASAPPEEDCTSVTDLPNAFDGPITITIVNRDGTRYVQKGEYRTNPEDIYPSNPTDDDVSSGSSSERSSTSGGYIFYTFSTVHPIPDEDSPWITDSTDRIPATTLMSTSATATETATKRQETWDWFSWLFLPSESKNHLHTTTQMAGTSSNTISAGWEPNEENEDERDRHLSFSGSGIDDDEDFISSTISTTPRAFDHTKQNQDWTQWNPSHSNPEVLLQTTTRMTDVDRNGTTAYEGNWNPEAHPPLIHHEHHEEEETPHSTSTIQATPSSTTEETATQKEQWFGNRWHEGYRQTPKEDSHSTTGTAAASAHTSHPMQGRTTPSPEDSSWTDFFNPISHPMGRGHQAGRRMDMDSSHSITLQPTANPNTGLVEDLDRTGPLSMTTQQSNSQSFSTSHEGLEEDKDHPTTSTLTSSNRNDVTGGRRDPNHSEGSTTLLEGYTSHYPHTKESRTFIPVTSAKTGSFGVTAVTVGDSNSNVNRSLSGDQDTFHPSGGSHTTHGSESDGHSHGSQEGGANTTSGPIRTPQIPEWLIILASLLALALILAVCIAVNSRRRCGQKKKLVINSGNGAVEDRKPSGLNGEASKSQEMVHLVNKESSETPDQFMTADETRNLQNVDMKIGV

Kd [nM] | Binder
1 | BIWA 4 (antibody, human IgG1, kappa, V domains shown) VH: EVQLVESGGGLVKPGGSLRLSCAASGFTFSSYDMSWVRQAPGKGLEWVSTISSGGSYTYYLDSIKGRFTISRDNAKNSLYLQMNSLRAEDTAVYYCARQGLDYWGRGTLVTVSS VL: EIVLTQSPATLSLSPGERATLSCSASSSINYIYWYQQKPGQAPRLLIYLTSNLASGVPARFSGSGSGTDFTLTISSLEPEDFAVYYCLQWSSNPLTFGGGTKVEIKR
1.8 | BIWI 1 (antibody, human IgG1, kappa, V domains shown, maytansinoid DM1 linked by a disulfide bond through the SPP-derived thiopentanoate linker; DM1/MAb ratio 3.1 (average for the whole antibody); attachment residues not stated) VH: EVQLVESGGGLVKPGGSLRLSCAASGFTFSSYDMSWVRQAPGKGLEWVSTISSGGSYTYYLDSIKGRFTISRDNAKNSLYLQMNSLRAEDTAVYYCARQGLDYWGRGTLVTVSS VL: EIVLTQSPATLSLSPGERATLSCSASSSINYIYWYQQKPGQAPRLLIYLTSNLASGVPARFSGSGSGTDFTLTISSLEPEDFAVYYCLQWSSNPLTFGGGTKVEIKR
